Laboratory results reported in patent US20040170990A1, “Intracellular nucleic acid inhibitors of small guanine nucleotide exchange factors” (published 2004).
Values belong to the molecule of their own block, whether it stands above or below them.

Legend:
[1] = molecular target: T1, cytohesin-1 (full-length) (UniProt Q15438); test: filter; conditions: non-selected library; 3 mM MgCl2, 37 C
T1 sequence: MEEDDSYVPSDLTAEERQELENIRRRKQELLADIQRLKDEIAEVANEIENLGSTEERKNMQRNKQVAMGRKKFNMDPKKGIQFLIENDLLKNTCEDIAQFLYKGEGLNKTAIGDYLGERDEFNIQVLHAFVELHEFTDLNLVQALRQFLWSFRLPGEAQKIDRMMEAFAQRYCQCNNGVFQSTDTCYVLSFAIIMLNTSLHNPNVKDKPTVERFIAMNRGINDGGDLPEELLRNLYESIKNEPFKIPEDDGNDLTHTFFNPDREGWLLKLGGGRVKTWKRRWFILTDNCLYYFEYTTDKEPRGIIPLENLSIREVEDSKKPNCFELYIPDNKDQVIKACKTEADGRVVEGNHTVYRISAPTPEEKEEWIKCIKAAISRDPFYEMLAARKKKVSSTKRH

[2] = molecular target: chimera ARF-1 protein fused at the carboxy terminus to the constant CH1 and CH2 domains of human IgG immunoglobulin (human) (UniProt P84077); test: cell-based or functional assay
chimera ARF-1 protein fused at the carboxy terminus to the constant CH1 and CH2 domains of human IgG immunoglobulin (human), sequence (P84077 whole entry, stated change not applied, the tested form may be a part): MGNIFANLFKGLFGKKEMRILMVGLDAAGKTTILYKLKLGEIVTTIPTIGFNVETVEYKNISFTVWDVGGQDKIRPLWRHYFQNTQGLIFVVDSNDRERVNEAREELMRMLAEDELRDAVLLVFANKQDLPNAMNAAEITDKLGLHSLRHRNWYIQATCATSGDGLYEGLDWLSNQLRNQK

[3] = molecular target: T2, Gea2 Sec7 domain (Gea2-Sec7, G2-Sec7) (UniProt P39993 P39993:570-714); test: filter; barely binds; 3 mM MgCl2, 37 C; conditions: tags: 6xHis, provided by Cathy Jackson; label: 5'-32P
T2 chain: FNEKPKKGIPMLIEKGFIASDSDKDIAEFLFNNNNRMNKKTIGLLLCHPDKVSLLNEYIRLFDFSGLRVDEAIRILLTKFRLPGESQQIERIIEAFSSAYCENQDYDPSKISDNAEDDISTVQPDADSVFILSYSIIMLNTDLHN
Experimental: (§1) The dissociation constant (Kd) was determined as described by Jellinek et al. (Jellinek et al., Proc. Natl. Acad. Sci. USA 90 (1993), 11227-11231). […] Of the analysed sequences the clone M69 bound cytohesin-1-His6 with a dissociation constant of 16 nM (see Table 2). As controls the same binding experiments were carried out with E. coli lysates which were treated similarly to the cytohesin-1 expressed in E. coli.
(§2) In the next step the binding site of the aptamer M69 on cytohesin-1 was delimited in more detail. For this purpose filter binding studies were carried out using subdomain constructs of cytohesin-1. The PH domain and the Sec7 domain of cytohesin-1 were overexpressed as 6×His-Tag proteins (PH-His6 and C1-Sec7-His6) in E. coli and purified as described for cytohesin-1-His6. The synthetic polybasic C-peptide was obtained from the company TopLab (Munich). The Sec7 domain of the large Brefeldin A-sensitive ARF-GEF's Gea2 (Gea2-Sec7) was made available as 6×His-Tag protein by Cathy Jackson (Departement de Biologie Cellulaire et Moleculaire, CEA/Saclay, France). […] On the other hand, no interaction with the PH domain or the Sec7 domain of Gea2 could be detected (see Table 2). […] The aptamer M5 on the other hand recognises both the Sec7 domain of cytohesin-1 and also of Gea2 with approximately the same affinity. The PH domain of cytohesin-1 is recognised an order of magnitude less well. […]

[4] = molecular target: T3, cytohesin-1 (full-length) (UniProt Q15438 Q15438:1-398); test: filter; 3 mM MgCl2, PBS-type buffer pH 7.3, 37 C; conditions: tags: 6xHis (cytohesin-1-His6), E. coli, Ni-NTA; label: 5'-32P
Experimental: (§3) Increasing concentrations of cytohesin-1-His6 (0.1 nM to 500 nM) were incubated with the aptamers according to the invention (1.0 nM) radioactively labelled with ³²P at the 5′ end for 1 h at 37° C. in selection buffer. The RNA/cytohesin-1-His6 complexes were then filtered over nitrocellulose acetate mixed membranes (HAWP 0.45 μm, Millipore). The filter was then rinsed with 5 ml of washing buffer (3 mM MgCl₂, 137 mM NaCl, 2.7 mM KCl, 4.3 mM Na₂HPO₄.7H₂O, 1.4 mM KH₂PO₄). Before the experiment the filters were pretreated for 10 minutes with 40 mM 6-aminocaproic acid and 20% ethanol. Radioactive RNA retained on the filters was quantified by analysis using a phosphor imager (Storm 860, Amersham). The dissociation constant (Kd) was determined as described by Jellinek et al. (Jellinek et al., Proc. Natl. Acad. Sci. USA 90 (1993), 11227-11231). […] Of the analysed sequences the clone M69 bound cytohesin-1-His6 with a dissociation constant of 16 nM (see Table 2). As controls the same binding experiments were carried out with E. coli lysates which were treated similarly to the cytohesin-1 expressed in E. coli.

[5] = molecular target: T4, cytohesin-1 Sec7 domain (C1-Sec7) (UniProt Q15438 Q15438:73-202); test: filter; 3 mM MgCl2, 37 C; conditions: tags: 6xHis, E. coli
T4 chain: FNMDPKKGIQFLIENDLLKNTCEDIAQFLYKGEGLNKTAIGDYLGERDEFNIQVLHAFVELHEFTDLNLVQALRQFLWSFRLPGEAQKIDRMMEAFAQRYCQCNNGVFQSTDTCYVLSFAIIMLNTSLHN
Experimental: as §1, with “Natl.” for “The dissociation constant (Kd) was determined as described by Jellinek et al. (Jellinek et al., Proc. Natl.”
(§4) In the next step the binding site of the aptamer M69 on cytohesin-1 was delimited in more detail. For this purpose filter binding studies were carried out using subdomain constructs of cytohesin-1. The PH domain and the Sec7 domain of cytohesin-1 were overexpressed as 6×His-Tag proteins (PH-His6 and C1-Sec7-His6) in E. coli and purified as described for cytohesin-1-His6. The synthetic polybasic C-peptide was obtained from the company TopLab (Munich). The Sec7 domain of the large Brefeldin A-sensitive ARF-GEF's Gea2 (Gea2-Sec7) was made available as 6×His-Tag protein by Cathy Jackson (Departement de Biologie Cellulaire et Moleculaire, CEA/Saclay, France). […] On the other hand, no interaction with the PH domain or the Sec7 domain of Gea2 could be detected (see Table 2). […] The aptamer M5 on the other hand recognises both the Sec7 domain of cytohesin-1 and also of Gea2 with approximately the same affinity. The PH domain of cytohesin-1 is recognised an order of magnitude less well. The aptamer M56 however binds best to the full-length protein cytohesin-1 and barely to the Sec7 domain of Gea2. Since both the Sec7 domain and also the PH domain of cytohesin-1 are bound with somewhat reduced affinities compared with the full-length protein, the aptamer appears to recognise a binding site on cytosin-1 which is composed of both domains.

[6] = molecular target: T5, cytohesin-1 PH domain (C1-PH) (UniProt Q15438 Q15438:260-377); test: filter; 3 mM MgCl2, 37 C; conditions: tags: 6xHis, E. coli; label: 5'-32P
T5 chain: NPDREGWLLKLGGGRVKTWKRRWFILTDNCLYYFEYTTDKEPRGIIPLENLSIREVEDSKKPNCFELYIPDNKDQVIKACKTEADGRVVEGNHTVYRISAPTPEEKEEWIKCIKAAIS
Experimental: as §1, with “Natl.” for “The dissociation constant (Kd) was determined as described by Jellinek et al. (Jellinek et al., Proc. Natl.”
as §4

[7] = molecular target: T3, cytohesin-1 (full-length); test: filter; 3 mM MgCl2, 37 C; conditions: tags: 6xHis (cytohesin-1-His6), E. coli, Ni-NTA
Experimental: Filter binding experiments were carried out in order to test whether the selected aptamer sequences can also recognise native cytohesin-1 in solution. The interaction analyses are described in detail in the literature. (Jellinek et al., Proc. Natl. Acad. Sci. USA 90 (1993), 11227-11231; Jellinek et al., Biochemistry 33 (1994), 10450-10456).
as §3, with “As controls the same binding experiments were carried out with E. coli lysates which were treated similarly to the cytohesin-1 expressed in E. coli.” left out

[8] = molecular target: T2, Gea2 Sec7 domain (Gea2-Sec7, G2-Sec7); test: filter; no measurable interaction; conditions: tags: 6xHis, provided by Cathy Jackson
Experimental: as §1, with “Natl.” for “The dissociation constant (Kd) was determined as described by Jellinek et al. (Jellinek et al., Proc. Natl.”
as §2

[9] = molecular target: T5, cytohesin-1 PH domain (C1-PH); test: filter; no measurable interaction; conditions: tags: 6xHis, E. coli
Experimental: as §1, with “Natl.” for “The dissociation constant (Kd) was determined as described by Jellinek et al. (Jellinek et al., Proc. Natl.”
as §2

[10] = molecular target: T3, cytohesin-1 (full-length); test: filter; 3 mM MgCl2, 37 C; conditions: tags: 6xHis (cytohesin-1-His6), E. coli, Ni-NTA; remark: listed apart in the source
Experimental: as §1, with “Natl.” for “The dissociation constant (Kd) was determined as described by Jellinek et al. (Jellinek et al., Proc. Natl.”
as §4

[11] = molecular target: T2, Gea2 Sec7 domain (Gea2-Sec7, G2-Sec7); test: filter; 3 mM MgCl2, 37 C; conditions: tags: 6xHis, provided by Cathy Jackson; label: 5'-32P
Experimental: as §1, with “Natl.” for “The dissociation constant (Kd) was determined as described by Jellinek et al. (Jellinek et al., Proc. Natl.”
as §4

[12] = molecular target: T3, cytohesin-1 (full-length); test: non-binding negative control; conditions: tags: 6xHis (cytohesin-1-His6), E. coli, Ni-NTA

Molecule: CUAUAGGGAGAGACAAGCUUGGGUCNNNNNNNNNNNNNNNNNNNNNNNNNNNNNNNNNNNNNNNNAGAAGAGAAAGAGAAGUUAAUUAAGGAUCCUCAG [non-selected N40 RNA library]
Kd [1]: > 4 µM

binding of [gamma-35S]-GTP to ARF-1 (GDP/GTP exchange assay) [2]: 10 fold
Molecule: cytohesin-1 (full-length protein) (from UniProt Q15438 1-398) (enzyme)

B1: M56 (ssRNA)
RNA: GGGAGAGACAAGCUUGGGUCUGUUGUUGGACCAGUGUUAUUUUACGCGAUUGUGCGGUUGUGAAGAGAAAGAGAAGUUAAUUAAGGAUCCUCAG
Kd [3]: > 1000 nM | Kd [4]: 5 nM | Kd ([5]; label: 5'-32P): 280 nM | Kd [6]: 150 nM

B2: M41 (ssRNA)
RNA: GGGAGAGACAAGCUUGGGUCGUCAUCCGUGUUUUGUCAUGUUUUGAUGGGGUUUGGGGUGUGAUAAGAGAAAGAGAAGUUAAUUAAGGAUCCUCAG
binding result [7]: binds

B3: M69 (ssRNA)
RNA: GGGAGAGACAAGCUUGGGUCUAUUAUGCCUUUAGCUAGCGCAUUCUGUGGGGUGGGUGGAAGAAGAGAAAGAGAAGUUAAUUAAGGAUCCUCAG
binding result [8]: no binding | binding result [9]: no binding | Kd [10]: 16 nM | Kd [5]: 16 nM

B4: M3 (ssRNA)
RNA: GGGAGAGACAAGCUUGGGUCAGGGAGGGUAGGGAUUUGGUUGUCCCAUGUUCGCAGCCGUAGAAGAGAAAGAGAAGUUAAUUAAGGAUCCUCAG
binding result [7]: binds

B5: M5 (ssRNA)
RNA: GGGAGAGACAAGCUUGGGUCGGGUUCGCUAAGUUGGUCUACCCCUCUCGAAUAUCCGUUAAGAAGAGAAAGAGAAGUUAAUUAAGGAUCCUCAG
Kd ([10]; label: 5'-32P): 40 nM | Kd ([5]; label: 5'-32P): 36 nM | Kd [11]: 48 nM | Kd [6]: 480 nM

B6: ML1 (ssRNA)
RNA: GGGAGAGACAAGCUUGGGUCGUGUCUGUGUAGAGGACAGGGCGAGAGUCUGAUUGUCUGCAGAAGAGAAAGAGAAGUUAAUUAAGGAUCCUCAG
binding result [12]: no binding
